Experimental data: article PMC5882805

Assays:
[1] = molecular target: Islet amyloid polypeptide (IAPP), human (human) (UniProt P10997); test: FRET or BRET; diluted-FRET by confocal imaging on GPMVs from INS-1 cells; 50 uM IAPP, 5 uM phospholipid, no ADM-116 (10:1:0); donor:acceptor:unlabelled 1:1:500; first 34 min (small sieve size leakage)
[2] = molecular target: Islet amyloid polypeptide (IAPP), human (human) (UniProt P10997); test: FRET or BRET; diluted-FRET inside live INS-1 cells; 10 uM IAPP, no ADM-116 (toxic condition); donor:acceptor:unlabelled 1:1:500; 24 h
[3] = molecular target: Islet amyloid polypeptide (IAPP), human (human) (UniProt P10997); test: FRET or BRET; diluted-FRET inside live INS-1 cells; 10 uM IAPP, no ADM-116 (toxic condition); donor:acceptor:unlabelled 1:1:500; 48 h
[4] = molecular target: Islet amyloid polypeptide (IAPP), human (human) (UniProt P10997); test: FRET or BRET; diluted-FRET inside live INS-1 cells; 10 uM IAPP in the medium, equimolar ADM-116 added 3 h later (rescued condition); donor:acceptor:unlabelled 1:1:100; 24 h and 48 h

With “Islet amyloid polypeptide (IAPP), human (from UniProt P10997 34-70)” the FRETeff (peak 1 of 4, first 34 min) [1] was 0.21, the FRETeff (peak 2 of 4, first 34 min) [1] was 0.36 and the FRETeff (peak 3 of 4, first 34 min) [1] was 0.41. For the same substance, the FRETeff (peak 4 of 4, first 34 min) [1] was 0.58, the FRETeff (peak at 24 h) [2] was 0.36 and the FRETeff (peak at 48 h) [3] was 0.62. The FRETeff (single peak, rescued with ADM-116) [4] was 0.6.
